Consider seven substances from patent US20200024330A1.

For orientation: IC50 means the concentration needed to halve the response being measured. Read a low IC50 as higher potency. One may read the IC80 as the point of the concentration-response curve where the effect stands at 80%. Low readings indicate greater potency, high ones weaker potency. What is called IC90 is the point of the concentration-response curve where the effect stands at 90%. Usually IC95 stands for the concentration needed for an effect of 95%.

Common to all, as to assay: cell-based or functional assay
Assay [1] addresses HIV-1 APV_17 Env (pseudovirus) (HIV-1).
Assay [2] addresses HIV-1 93IN905 Env (pseudovirus) (HIV-1).
Assay [3] addresses HIV-1 NL43 Env (pseudovirus) (HIV-1).
In assay [4] the target is HIV-1 Env of isolate MG RM-AG-011 (HIV-1).
In assay [5] the target is HIV-1 Env of isolate MG RM-D-024 (subtype D) (HIV-1).
For assay [6], the target named is HIV-1 Env of isolate MGRM-C-028 (pseudovirus) (HIV-1 isolate MGRM-C-028, subtype C).
Assay [7] deals with HIV-1 Env of isolate MGRM-C-008 (pseudovirus) (HIV-1 isolate MGRM-C-008, subtype C).
In assay [8] the target is HIV-1 SF162 Env (pseudovirus) (HIV-1) (UniProt P19550).
Assay [9] concerns the target HIV-1 PVO.4 Env (pseudovirus) (HIV-1).
The target in assay [10] is HIV-1 Env of isolate MGRM-C-001 (pseudovirus) (HIV-1 isolate MGRM-C-001, subtype C).
In assay [11] the target is HIV-1 Env of isolate 92UG114 (subtype D) (HIV-1).
Assay [12] addresses HIV-1 Env of isolate MGRM-G-025 (HIV-1).
Assay [13] deals with HIV-1 JR-CSF Env R476A (HIV-1 (isolate JR-CSF)) (UniProt P20871).
Assay [14] concerns the target HIV-1 94UG103 envelope glycoprotein (Env) on pseudovirus (HIV-1).
For assay [15], the target named is HIV-1 JR-CSF Env N156A (HIV-1 (isolate JR-CSF)) (UniProt P20871).
Assay [16] deals with HIV-1 MGRM-C-006 Env (HIV-1).
For assay [17], the target named is HIV-1 Env of isolate MGRM-D-011 (clade D) (HIV-1).
For assay [18], the target named is HIV-1 Env of isolate MGRM-D-029 (clade D) (HIV-1).
The target in assay [19] is HIV-1 MGRM-F1-022 Env (pseudovirus) (HIV-1).
The target in assay [20] is HIV-1 MGRM-C-023 Env (HIV-1).
For assay [21], the target named is HIV-1 Env of isolate MGRM-D-026 (clade D) (HIV-1).
The target of assay [22] is HIV-1 Env of isolate MGRM-D-003 (clade D) (HIV-1).
The target of assay [23] is HIV-1 98CN009 envelope glycoprotein (Env) on pseudovirus (HIV-1).
The target in assay [24] is HIV-1 MGRM-C-022 Env (HIV-1).
The target of assay [25] is HIV-1 IAVI-C22 envelope protein (Env) on pseudovirus (HIV-1).
Assay [26] has as its target HIV-1 MGRM-C-005 Env (HIV-1).
Assay [27] has as its target HIV-1 LAVI_C22 Env (HIV-1).
In assay [28] the target is HIV-1 Env of isolate MGRM-G-013 (clade G pseudovirus) (HIV-1).
In assay [29] the target is HIV-1 92RW021 envelope glycoprotein (Env) on pseudovirus (HIV-1).
The target of assay [30] is HIV-1 97ZA012 envelope glycoprotein (Env) on pseudovirus (HIV-1).
Assay [31] deals with HIV-1 JR-CSF envelope protein (Env) on pseudovirus (HIV-1) (UniProt P20871).
The target in assay [32] is HIV-1 Env of isolate MGRM-D-016 (clade D) (HIV-1).

With 4838_L06 (PGT-121) (antibody), the IC50, pseudovirus neutralization is 0.066 µg/mL in [1]; 0.005 µg/mL in assay [2]; > 50 µg/mL in assay [3]; 0.005 µg/mL in assay [8]; 0.137 µg/mL in [9]. The neutralization IC80 in assay [2] was determined as 0.0302 µg/mL. Further, in assay [2], the neutralization IC90 was found to be 0.0645 µg/mL. Also, the neutralization IC50 in assay [4] was > 50 µg/mL. The results for the IC50 (µg/mL), pseudovirus neutralization in [5] and in assay [11] were 0.038 µg/mL and 0.004 µg/mL, respectively. The IC50 (µg/mL) neutralization is 0.472 µg/mL in assay [6], 0.012 µg/mL in assay [7] and 17.5 µg/mL in [10].
As to 4858_P08 (PGT-123) (antibody), the IC50, pseudovirus neutralization in assay [1] was 0.114 µg/mL; in assay [2] it was 0.004 µg/mL; in assay [3] it was > 50 µg/mL; in [12], 0.046 µg/mL; in assay [8], 0.005 µg/mL; in [14] it was 0.846 µg/mL. In addition, the IC50, pseudovirus neutralization in [9] is 0.105 µg/mL. For the same substance, the neutralization IC50 in [4] is > 50 µg/mL. Moreover, the IC50 (µg/mL), pseudovirus neutralization stood at 0.023 µg/mL in assay [5] and 0.005 µg/mL in assay [11]. Further, the IC50 (µg/mL) neutralization in assay [6] was determined as 0.402 µg/mL; in assay [7], 0.011 µg/mL; in assay [10], 42.4 µg/mL. In addition, the Fold IC50 increase relative to wild-type in assay [13] came out at 2 fold; in assay [15] it was 6.2 fold. In addition, in assay [14], the IC50 (ug/ml), neutralizing activity came out at 0.846 µg/mL. In [14], the IC80, pseudovirus neutralization was 3.29 µg/mL. Also, the IC90 (pseudovirus neutralization) in assay [14] stood at 8.56 µg/mL. The IC95, pseudovirus neutralization in [14] is > 10 µg/mL.
As to 4877_D15 (PGT-122) (antibody), the IC50, pseudovirus neutralization in assay [1] was 0.25 µg/mL; in [2] it was 0.013 µg/mL; in assay [3] it was > 50 µg/mL; in [12], 0.079 µg/mL; in [8] it was 0.009 µg/mL; in assay [9] it was 0.689 µg/mL. For the same substance, in [4], the neutralization IC50 is > 50 µg/mL. Moreover, the IC50 (µg/mL), pseudovirus neutralization in assay [5] was 0.185 µg/mL; in [11], 0.011 µg/mL. Besides, the IC50 (µg/mL) neutralization amounted to 2.22 µg/mL in assay [6], 0.028 µg/mL in [7] and 19.1 µg/mL in [10]. This substance showed an IC50 (ug/ml), neutralizing activity in [14] of 1.46 µg/mL.
On to 5123_A06 (PGT-125) (antibody), for which the IC50, pseudovirus neutralization in assay [1] is 8.06 µg/mL; in assay [2], 0.009 µg/mL; in assay [3], > 50 µg/mL; in assay [12], > 50 µg/mL; in [8], 0.004 µg/mL; in assay [9], 0.042 µg/mL. Also, the neutralization IC50 in assay [4] is > 50 µg/mL; in [14] it was 0.0124 µg/mL. For the same substance, the IC50 (µg/mL), pseudovirus neutralization in [5] is > 50 µg/mL; in [11], 0.349 µg/mL. Further, the IC50 (µg/mL) neutralization is 14 µg/mL in [6], > 50 µg/mL in assay [7] and > 50 µg/mL in assay [10]. Besides, the Fold IC50 increase relative to wild-type in [13] is 1.9 fold; in assay [15], 3.6 fold. Also, the IC50 (ug/ml), neutralizing activity in assay [14] was found to be 0.0124 µg/mL. Also, the neutralization IC80 in assay [14] came to 0.0373 µg/mL. In [14], this substance returned a neutralization IC90 of 0.071 µg/mL. In assay [14], this substance came in with a neutralization IC95 of 0.129 µg/mL.
Take 5141_B17 (PGT-126) (antibody): the IC50, pseudovirus neutralization is 0.353 µg/mL in assay [1]; 0.015 µg/mL in [2]; > 50 µg/mL in assay [3]; 17.1 µg/mL in [12]; 0.003 µg/mL in [8]; 0.017 µg/mL in assay [9]. In addition, the IC50 is 0.0194 µg/mL in assay [2] and > 10 µg/mL in [3]. Besides, the 80% effect concentration (IC80) was 0.0676 µg/mL in [2] and > 10 µg/mL in assay [3]. The values for the IC90 in assay [2] and in [3] were 0.14 µg/mL and > 10 µg/mL, respectively. For the same substance, the concentration for an effect of 95% (IC95) in assay [2] is 0.275 µg/mL; in [3] it was > 10 µg/mL. The substance also gave a neutralization IC50 in [4] of 24.5 µg/mL. Moreover, the IC50 (µg/mL), pseudovirus neutralization in [5] was 0.376 µg/mL; in assay [11], 0.038 µg/mL. Besides, the IC50 (µg/mL) neutralization in [6] was 0.196 µg/mL; in [7] it was 2.12 µg/mL; in assay [10], > 50 µg/mL. The Fold IC50 increase relative to wild-type in assay [13] stood at 1.5 fold; in assay [15] it was 1.8 fold. Moreover, the IC50 (ug/ml), neutralizing activity in assay [14] was 0.0091 µg/mL.
In the case of 5145_B14 (PGT-127) (antibody), the IC50, pseudovirus neutralization is 10.4 µg/mL in [1]; 0.024 µg/mL in assay [2]; > 50 µg/mL in assay [3]; 19.3 µg/mL in assay [12]; 0.019 µg/mL in assay [8]; 0.164 µg/mL in assay [9]. For the same substance, the neutralization IC50 in [4] was > 50 µg/mL. Also, the values for the IC50 (µg/mL), pseudovirus neutralization in assay [5] and in [11] were 1.95 µg/mL and 7.09 µg/mL, respectively. For the same substance, the IC50 (µg/mL) neutralization is 7.57 µg/mL in assay [6], > 50 µg/mL in assay [7] and > 50 µg/mL in assay [10]. Besides, the Fold IC50 increase relative to wild-type in assay [13] came out at 1.2 fold; in assay [15], 1.6 fold.
As for b12 (antibody), the IC50 in assay [16] was > 50 µg/mL; in [20], 13.9 µg/mL; in [24], > 50 µg/mL; in assay [26], 2.66 µg/mL; in assay [27] it was 7.64 µg/mL. The IC50 (µg/ml), pseudovirus neutralization in [17] is 7.75 µg/mL; in assay [18], > 50 µg/mL; in assay [19], > 50 µg/mL; in assay [21], 1.55 µg/mL; in assay [22] it was > 50 µg/mL; in assay [23], 1.52 µg/mL. The IC50 (µg/ml), pseudovirus neutralization is > 50 µg/mL in assay [28], > 50 µg/mL in assay [29], > 50 µg/mL in [30] and 1.12 µg/mL in assay [32]. Moreover, the IC90 (pseudovirus neutralization) in assay [14] was found to be 47.3 µg/mL. The results for the neutralization IC50 in assay [25] and in [31] were 3.6 µg/mL and 0.16 µg/mL, respectively.
